Results: doi:10.1101/2024.10.04.616518 (2024)

How the values were obtained:
[1] = molecular target: bovine pancreatic chymotrypsin (bovine); assay: apparent Ki, Morrison fit, 25 nM chymotrypsin
[2] = molecular target: bovine pancreatic chymotrypsin (bovine); assay: apparent Ki, intercept of IC50 vs chymotrypsin concentration

B1: ixochymostatin (natural protein)
chain: ANTGIEWPPKPQKCAEGETWKECVGSSCAELTCEHPEPSLGCTYDCNYGCYCAPDFFRNANKECVKKDKCP
B1 was tested, and the Ki [1] was 0.99 nM and the Ki [2] was 16.5 nM.
